Data from the nanobody polyreactivity screen of Harvey et al. (2022).

Test: yeast display, Sf9 membrane polyspecificity reagent, FACS + sequencing; frameworks hold sequencing errors
Method in brief: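 Galactose induction of a Saccharomyces cerevisiae BJ5465 synthetic nanobody display library ran 36–48 hours. The cells were then stained for 1 hour at 4 °C with 10% biotinylated, detergent-solubilized Sf9 membrane reagent, pulled down on streptavidin microbeads and FACS-sorted into low and high (top ~1%) gates on expression and reagent-binding fluorescence. Labels for polyreactivity follow the gate of origin.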

Row | Sequence | polyreactivity (PSR sort gate)
1 | QVQLVESGGGLVQAGGSLRLSCAASGRTFYHYAMGWYRQAPGKERELVATITSSGGNTYYADSVKGRFTISRDNSKNTVYLQMNSLKPEDTEVYYCAADWFVYQYSFGSSEYYYWGQGTQVTVSS | low polyreactivity
2 | QVQHVESGGGLVQAGGSLSLSCAASGSTFKHYAMGWYRQAPGKERELVAAISSRGGSTHYADSVKGRFRISRDNAKNTVYLQMNSLKPEDTAVYYCARDTDPQSSRSSDYDYWGQGTQVTVSS | low polyreactivity
3 | QVQLVESGGGLVQAGGSLRLSCAASGFIFDTYAMGWYRQAPGKERELVAAISWTGTDTYYADSVKGRFTISRDNAKNTVYLQMNSLKPEDTAVYYCAARSRYKYSPSGDYWGQGTQVTVSS | high polyreactivity
4 | QVQLVESGGGLVQAGGSLRLICAASGSTFQDYGMGWYRQAPGKERELVAAITTGDITNYADSVKGRFTISRDNAKKTVYLQMNSLKAEDTAVYYCNAEPKFYPDAGDDYWGQGTQVTVSS | low polyreactivity
5 | QVQLVESGGGLVQAGGSLRLSCAPSGRIVGKYVMGWDRQAPRKERELVAGICWSAGSTYYADSVKGRFTISRDNAKNTVYLQMNSLKPEDTAVYYCAAGLEGGSDYWGQGTQVTVSS | low polyreactivity
6 | QVHLVESGGGLVQAGGSLRLSCAASGYIFYAIAMGWYRQAPGKERELVAAISTGGNTNYADSVKGRFTISRDNAKNTVYVQMNSLKPEDTAVYYCAVRSTGPYRWRTPVTRDYWGQGTQVTVSS | low polyreactivity
7 | QVQLVESGGGLVQAGGSLRLSCAASGSTFAGNAMGWYRQAHGKERELVAALDSSTGSTYYAYSVKGRFTISRDNAKNTVYLQMNSVKPEDTAVYYWNKTSFLVKLDYWGQGTQVTVSS | low polyreactivity
8 | QFQLVESGGGLVQAGGRLRLSCAASGRIFRYSAMGWYRQAPGKERQLVASISSGGSTNYADSVKGRFTISRDNAKNTVYLQMNSLKQEDTAVYYCAARYWVSGFRAGYYWGQGTQVTVSS | high polyreactivity
9 | QVQLVESGGGLVQAGGSLRLSCAASGRTLDHYAMGWYRQAPGKERELVAAITSSGGSTYYADSVKGRFTISRDNAKNTVYLQMNSLKPEETAVSYCAADVSSQREWIIEHDYWGQGTQVTVSS | low polyreactivity
10 | QVQLVESGGGLVQAGGSLRLSCAASGITFYVYAMGWYRKAPGKERELVAAITSNGASTYYADSVKGRFTISRDNAKNTVYLQMNSLKPEDTAVYYCARRIKFPYHSYVGEYDYWGQGTQVTVSS | low polyreactivity
11 | QVQLVESGGGLVQAGGSLRLSCAASGFTLYSYAMGWYRQAPGKERELVAAITRSGGITYYADSVKGRFTISRDNAKNTVYLQMNSLKPEDTAVYYCNAYRGGLSSEHYYWGQGTQVTVSS | high polyreactivity
12 | QVQLVESGGGLVQAGGSHRLSCAASGRPSAVNALGWSRQAPGKERELVAAITYGGDSTFYADSVKGRFTISRDNAKNTVYLQMNSLKPEDTAVYYCNADIWFIWHSFGWGYDYWGQGTQVTVSS | low polyreactivity
13 | QVQLVESGGGLVQAGGSLRLSCAASGRIFRYYAMGWYRQAPGKEREFVAGISWRGSSTYYADSVKGRFTISRDNAKNTVYLQMNSLKPEDTAVYYCNRDQSNIPVTGGRFYYWGQGTQVTVSS | high polyreactivity
14 | QVQLVESGGGLVQAGGSLRLSCAASGIIFRAYAMGWYRPAPGKERELVAAISRSGGSTYYADSVKGRFTISRDNAKNTVYLQMNSLKQEDTAVYYCAADTVWYLYYYWGQGSQVTVSS | high polyreactivity
15 | QVKLVESGGGLVQAGGSLRLSCAASGFTYSANTMGWSRQAPGKERELVAAITRGGRPYYADSVKGRFTISRDNAKNTVYFQMNSLKPEDTAVYYCAKRATWYTVPREGYWGQGTQVTVSS | high polyreactivity
16 | HVQLVESGGGLVQAGGSLRLSCAAWSIFYLNAMGWYRQAPGKERELVAAISSAGSTYYADSVKGRFTISRDNAKNTVYLQMNSLKPEDTAVYYCAAYWYDSPGVTEIWYDYWGQGTQVTVSS | low polyreactivity
17 | QVQLVESGGGLVQAGGSLRLSCAASGLIFNRYVMGWYRQARGKERELVAAITCSGDSTYYADSVKGRFTISRDNAKNTVYLQMNSLKPVDTAVYYCAAWDYRYTDREGDYWGPGTQVTVSS | high polyreactivity
18 | QVQLVESGGGLVQAGGSLRLSCAASGIIYKYAMGWYRQAPGKERELVAAISSGASTNYADSVKGRFTISRDNAKNTVYLQMNSLKPEDTAVYYCNVTTGASFEFDYWGQGTQVTVSS | low polyreactivity
19 | QVQLVESGGGLVQEGGSLRLSCAASGSTFRHNAMGRYRQAPGKERELVAVITDGASTNYADSVKGRFTISRDNAKNTVYLQMNSLKPEDTAVYYCAAYHRGYYTGREYYYWGQGTQVTVSS | low polyreactivity
20 | QVQLVESGGGLVQAGGSLRLSCAASGRTSRLYAMGWYRQAPGKERELVATITRSAGDTYYADSVKGRFTISRDNAKNTVYLQMNSLKPEDTAVYYCNARAAKWSRYDYWGQGTQVTVSS | high polyreactivity
21 | QVQLVESGGGLVQAGGSLRLSCAASGRIFYFYAMGWYRQAPGKERELVAAISTSGGSTYYADSVKGRFTISRDNAKNTVYLQMNRLKPEDTAVYYCASRFRYYGSEYDYWGQGTQVTVSS | low polyreactivity
22 | QVQLVDSGGGLVQAGGSLRLSCAASGRTIWRNAMGWYRQAPGKERELVAAIRWSGGRTYADSVKGRFTISRDKAKNTVYLQMNILKPEDTAVYYCNARGLSDWTLKLDYWGQGTQVTVSS | low polyreactivity

Row | Sequence | polyreactivity (PSR sort gate)
23 | QVQLVESGGGLVQAGGSLRLSCAASGRISFYYARGWSIQAPGKERELVAAISRGGSTYYADSVKGRFTISRDNAKNTVYLQMNSLKPEDTAVYYCAATYSVVDTPSGYDYWGQGTLVTVSS | low polyreactivity
24 | QVQLEESGVGLLQAGGSLRLSCAASGFIFCSNDMGWYRQAPGKERELVAAITRGGNTNYADSVKGRFTISRDNAKNTVYLQLNSLKPEDTAVYYCATEGYGAVQPSYEGGYWGQGTQVTVSS | low polyreactivity
25 | QVQLVESGGGLVQAGGSLRLSCAASGRTFYLYAMGWYRPAPGKERELVAAITWSGGSTYYADSVKGRFTISRYNAKNTVFLQMNSLKPEDTAVYYCAAGLYLFQIWFGNEYDYWGQGTQVTVSS | high polyreactivity
26 | QVQLVESGGGLVQAGGSLRLSCAASGVIFKAYAMGWYRPAPGKERELVAAITSSGGRTYYADSVKGRFTISRDNAKNTVYLQMNSLKPEDSAVYYCNARGVLRTSLYRYDYWGQGTQLTVSS | high polyreactivity
27 | QVQLVESGGGLVQAGGSLRLSCAASGSTFGYYAMGWNRQAPGKERELVATITWSGGSTNYADSVKGRFTISRDNAKNTVYLQMYSLKPEDTAVYYCAADLKYWYFGLAFIEVDYWGQGTQVTVSS | low polyreactivity
28 | QVQLVESGGGLVQAGGSLRLSCAASGSTFAAYVMGWYRQAPGKEWELVAAITSGGSTYYADSVKGRFTISRDNAKNTVYLQMNSLKPEDTAVYYCAASWIRYRWRYGYWGQGTQVTVSS | high polyreactivity
29 | QVQLEESGGGLVQAGGSLRLSCAASGNILFKYAMGWNRQAPGKERELVASITSRGGSTYYADSVKGRFTISRDNAKNTVYLQMNSLKPEDTAVYYCAVDADEVTFDYWGQGTQVTVSS | low polyreactivity
30 | QVQLVESGGGLDQAGGSLRLSCAASGFIFLDYAMGWYRRAPGKERELVAAISSRGARTYYADSVKGRFTISRDNAKNTFYLQMNSLKPEDTAVYYCAARGPLDRYGYWGQGTQVTVSS | high polyreactivity
31 | QVQLVETGGGLVQAGGSLRLSCAASGSIFYRYAMGWYRQAPGKEREMVAAIRTRGGTYYADSVKGRFTISRDNAKNTVYLQMNSLKPEDTAVYYWNAVVPGCTAVDYDYWGQGTQVTVSS | high polyreactivity
32 | QVQLVESGGGLVQAGGSLRLSSAGSGRIFQPYAMGWYRQAPGKERELVAAITRRAGSTYYADSVKGRFTISRDNAKNTVYLQMNSLKPEDTAVYYWAARGLYWAYEMEDWGQGTQVTVSS | low polyreactivity
33 | QVQLGESGGGLVQAGGSLRLSCAASGSIFGGNTKGWYRQAPGKERELVAAINGGVTTNYADSVKGRFTISRDNAKNTVYLQMNSLKPEDTAVYYCNAVDFGPVVLRLYYWGQGTQVTVSS | low polyreactivity
34 | QVQLVESGGGLVQAGGSLRLSCAASGRTFPVNAMGWYRQAPGKERELVAAITTNGGRTYYADSVKGRFTISRDNAKNTVYLQMNSLKPEDTAVYYCATRAYNDKRYGYWGQGTQVTVSS | high polyreactivity
35 | QVQLVESGGGLVHAGGSLSLSCAASGFILGVYAMGWYRQEPGKERELVAAITFTGASTYYADSVKGRFTLSRDNAKNTVYLQMNSLKPEDTAVNYCNKSSAYYRYEYWGQGTQVTVSS | low polyreactivity
36 | QVQLVESGGGLVQAGGSLRLSCAASGSIFRRYAMGWYRKAPGKERELVAGISRGGGITYYADSVKGRFTISRDNAKNTVYLQMNSLKPEDTAVYYCAARIGATYWVDWTHRAYDYWGQGTQVTVSS | high polyreactivity
37 | QVQLVESGGGLVQAGGSLRLSCAASGFTFGYYTMGWYRQAPGKERELVAAITWRGTTYYADSVKGRFTISRDNAKNTVYLQMNSLKPEDTAVYYCATVVLLRIWGGYWGQGTQVTVSS | high polyreactivity
38 | QVQLVESVGGLVQAGGSLRLSCAASGSIFSSYAMGWYRQAPGKERELVAAITSGGSTYYADSVKGRFTISRDNAKNTVYLQMNSLKPVDPAVYYCAAREVLTSKLHMGYWGTGTQVTVSS | low polyreactivity
39 | QVQLVESGGGLVQAGGSLRLSCAASGRTFRPYAMGWSRQAPGKERELVAAIDSSGTSTYYADSVKGRFTISRDNAKNTVYLQMNSLKPEDTAVYYCAKAWPDHWYSRYDYWGQGTQVTVSS | low polyreactivity
40 | QVHLVESGGGLVQAGGSLRLSCAASGIIFGHYDMGWYRQAPGKERELVAAITFTGDSTYADSVKGRFTISRDNAMNTVYLQMNSLKPEDTAVYYCNASVKPSNVWSRGYDYWGQGTQVTVSS | low polyreactivity
41 | QVQLVESGGGLVQAGGSLRLSCAASGLIFQSYAMGWYRQAPGKERELVAVITWSGTSTYADSVKGRFTISRVNAKNTVYLQMNSLKPEDTAVYYCAASKYGSFTNFGYWGQGTQVTVSS | low polyreactivity
42 | QVQLVESGGGLVQAGGSLRLSCAASGITFALNAMGWYRQAPGKERELVAAISWSGDSTYYADSVKGRFTISRDNAKNTVYLQMNSLKPEDTAVYYCAAVAYLNWTPHYYWGQGTQVTVSS | low polyreactivity
43 | QVQLVESGGGLVQAGGSLRLSCAASGFTFFYNAMGWYRQAPGKEREFVAAISGRGGTTYYADSVKGRFTISRDNAKNTVYLQMNSLKPEDTAVYYCAAYYRGYAYNYWGQGTQVTLSS | high polyreactivity
